Data: patent US20070281327A1 (published 2007)

T1: Human Mpl-IgG Fc fusion protein (hMpl-Fc) (human, UniProt P40238 26-491)
T1 construct: range 26-491; Expressed in CHO-DG44 cells with a 19-amino acid signal peptide from a human IgG H chain variable region, which is not part of the mature protein; No numbering scheme is named for Asp 216; also called shMPL-Fc; not shown: Fc region of human IgG-gamma1, a region downstream of Asp 216
T1 sequence: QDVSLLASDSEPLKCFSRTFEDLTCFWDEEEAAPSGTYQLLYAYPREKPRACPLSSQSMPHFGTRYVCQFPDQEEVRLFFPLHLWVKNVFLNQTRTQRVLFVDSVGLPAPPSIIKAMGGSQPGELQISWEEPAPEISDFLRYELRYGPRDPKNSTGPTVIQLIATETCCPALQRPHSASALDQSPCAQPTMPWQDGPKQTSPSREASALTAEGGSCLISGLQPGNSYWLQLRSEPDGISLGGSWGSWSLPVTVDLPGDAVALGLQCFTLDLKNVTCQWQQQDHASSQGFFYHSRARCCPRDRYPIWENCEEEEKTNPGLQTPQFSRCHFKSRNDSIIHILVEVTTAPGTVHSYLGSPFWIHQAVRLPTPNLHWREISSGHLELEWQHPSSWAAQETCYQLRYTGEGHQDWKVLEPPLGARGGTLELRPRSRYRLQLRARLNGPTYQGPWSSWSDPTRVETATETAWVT

T2: human Mpl expressed on BaF3 cells (BaF3-human Mpl) (human, UniProt P40238 26-635)
T2 sequence (looked up): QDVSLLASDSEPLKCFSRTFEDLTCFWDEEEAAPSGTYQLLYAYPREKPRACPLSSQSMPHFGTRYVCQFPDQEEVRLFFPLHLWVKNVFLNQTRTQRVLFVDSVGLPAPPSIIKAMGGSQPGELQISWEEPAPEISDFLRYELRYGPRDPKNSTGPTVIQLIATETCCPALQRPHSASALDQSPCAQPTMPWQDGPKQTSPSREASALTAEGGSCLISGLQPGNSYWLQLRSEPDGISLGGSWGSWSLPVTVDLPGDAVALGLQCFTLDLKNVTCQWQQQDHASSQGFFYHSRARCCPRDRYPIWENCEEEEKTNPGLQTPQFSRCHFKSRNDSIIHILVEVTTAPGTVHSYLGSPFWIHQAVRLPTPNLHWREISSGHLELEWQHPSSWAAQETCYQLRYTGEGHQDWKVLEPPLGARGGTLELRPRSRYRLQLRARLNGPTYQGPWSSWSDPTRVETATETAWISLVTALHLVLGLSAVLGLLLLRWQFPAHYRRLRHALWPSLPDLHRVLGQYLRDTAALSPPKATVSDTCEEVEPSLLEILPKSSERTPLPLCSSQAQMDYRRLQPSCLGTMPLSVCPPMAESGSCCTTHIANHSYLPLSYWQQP


Columns and labels:
[1] = biological target: human Mpl expressed on BaF3 cells (BaF3-human Mpl) (human) (UniProt P40238); experiment: cell-based or functional assay
[2] = biological target: T1, Human Mpl-IgG Fc fusion protein …; experiment: ELISA on plates coated with hMpl-Fc, diabody detected by anti-FLAG M2
Experimental: (§1) The binding activity of anti-human Mpl single-chain antibody to hMPL-Fc was assessed using ELISA. After plates were coated with 0.5 μg/ml purified hMPL-Fc, blocking treatment was carried out using Diluent buffer. A purified product of VA130 was diluted to an appropriate concentration and added to the plates. Then, the plates were allowed to stand at room temperature for one hour. After washing with Rinse buffer, 1000-times-diluted ANTI-FLAG M2 Monoclonal Antibody (SIGMA-ALDRICH) was added. The plates were incubated at room temperature for one hour. Next, after washing with Rinse buffer, 1000-times-diluted Alkaline Phosphatase-labeled anti-mouse IgG antibody (Zymed) was added, and the plates were allowed to stand at room temperature for one hour. After washing with Rinse buffer, color development was achieved using SIGMA104 (SIGMA-ALDRICH) diluted to 1 mg/ml in substrate buffer. Color was developed for 15 minutes at room temperature and then absorbance was determined at 405 nm with Benchmark Plus.

[3] = biological target: T1, Human Mpl-IgG Fc fusion protein …; experiment: ELISA on plates coated with hMpl-Fc, sc(Fv)2 detected by anti-FLAG M2
Experimental: as §1

[4] = biological target: T2, human Mpl expressed on BaF3 cells …; experiment: cell-based or functional assay
[5] = biological target: T1, Human Mpl-IgG Fc fusion protein …; experiment: ELISA on plates coated with hMpl-Fc, IgG

Row | Agonistic activity, Analysis using Baf-hMpl (EC50) [1] [nM] | EC50 [2] [nM] | EC50 [3] [nM] | TPO-like agonist activity, BaF3-human Mpl proliferation (WST-8), EC50 [4] [nM] | EC50 [5] [nM] | Binder
1 | 0.222 | 0.11 |  |  |  | VA130 diabody (VA130 single-chain Fv with a five-amino acid (Gly4Ser)1 linker, FLAG-tagged) (scFv, The order is VH-(Gly4Ser)1-VL-FLAG; also called VA130 db) scFv: QVQLQQSGPELVKPGASVKISCKASGYAFSSSWMNWVKQRPGKGLEWIGRIYPGDGDTNYNGKFKGKATLTADKSSSTAYIQLSSLTSEDSAVYFCARGYADYSFAYWGQGTLVTVSAGGGGSDIVMTQAAPSVPVTPGESVSISCRSSKSLLHSNGNTYLYWFLQRPGQSPQLLIYRMSNLASGVPDRFSGSGSGTAFTLRISRVEAEDVGVYYCMQHLEYPYTFGSGTKLEIKDYKDDDDK
2 | 1.02 |  | 0.27 |  |  | VA130 sc(Fv)2 (other, A single polypeptide with two VH and two VL units from VA130; also called anti-human Mpl antibody sc(Fv)2; VA130 single-chain antibody) QVQLQQSGPELVKPGASVKISCKASGYAFSSSWMNWVKQRPGKGLEWIGRIYPGDGDTNYNGKFKGKATLTADKSSSTAYIQLSSLTSEDSAVYFCARGYADYSFAYWGQGTLVTVSAGGGGSGGGGSGGGGSDIVMTQAAPSVPVTPGESVSISCRSSKSLLHSNGNTYLYWFLQRPGQSPQLLIYRMSNLASGVPDRFSGSGSGTAFTLRISRVEAEDVGVYYCMQHLEYPYTFGSGTKLEIKGGGGSGGGGSGGGGSQVQLQQSGPELVKPGASVKISCKASGYAFSSSWMNWVKQRPGKGLEWIGRIYPGDGDTNYNGKFKGKATLTADKSSSTAYIQLSSLTSEDSAVYFCARGYADYSFAYWGQGTLVTVSAGGGGSGGGGSGGGGSDIVMTQAAPSVPVTPGESVSISCRSSKSLLHSNGNTYLYWFLQRPGQSPQLLIYRMSNLASGVPDRFSGSGSGTAFTLRISRVEAEDVGVYYCMQHLEYPYTFGSGTKLEIKDYKDDDDK
3 |  |  |  | > 100 | 0.38 | VA130 IgG (mouse monoclonal anti-human Mpl antibody VA130) (antibody, V domains shown, Whole mouse IgG from a hybridoma; also called VA130 antibody; VA130 anti-human Mpl antibody) VH: QVQLQQSGPELVKPGASVKISCKASGYAFSSSWMNWVKQRPGKGLEWIGRIYPGDGDTNYNGKFKGKATLTADKSSSTAYIQLSSLTSEDSAVYFCARGYADYSFAYWGQGTLVTVSA VL: DIVMTQAAPSVPVTPGESVSISCRSSKSLLHSNGNTYLYWFLQRPGQSPQLLIYRMSNLASGVPDRFSGSGSGTAFTLRISRVEAEDVGVYYCMQHLEYPYTFGSGTKLEIK
4 |  |  |  |  | 0.15 | VB16 IgG (mouse monoclonal anti-human Mpl antibody VB16) (antibody, V domains shown) VH: QVQLQQPGTELVRPGASVKLSCKASGYTFTDYWVNWVKQRPGRGLEWIGRIHPYDSETHYNQKFKNKATLTVDKSSSTAYIQLSSLTSEDSAVYYCASGGWFASWGQGTLVTVSA VL: DIVMTQAAPSVPVTPGESVSISCRSSKSLLYSNGNTYLYWFLQRPGQSPQLLIYRMSNLASGVPDRFSGSGSGTAFTLTISSVEAEDVGVYYCMQHLEYPYTFGSGTKLEIK
